A short description of the series: protein stability index of a GFP-peptide fusion (GPS, HEK-293T) (PSI 1-6); higher = more stable.
The mark [1] stands for this setting: treatment: DMSO, c terminus: a fixed tail appended.
[2] abbreviates: treatment: MLN4924 1 uM, 8 h, c terminus: a fixed tail appended.

29 sequences from the supplement of paper PMC10567573 can be followed below.

± gives the standard deviation.
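Also: 24-mer peptide tiles fused after GFP, lentivirally expressed, FACS-sorted into six equal bins by GFP/DsRed ratio, decoded by Illumina sequencing, PSI is the read-weighted mean bin number.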

With VLRAGDREDITEPAICALRHLTSR [CTNNB1], the protein stability index by setting is: under setting [1], 3.39 ± 0.39; under setting [2], 3.67 ± 0.18. Taken in the same sequence, the figures for GKIIGGMWRDLTDEEKQEYLNEYE [SMARCE1] were 4.56 ± 0.14 and 4.64 ± 0.27. Consider GTRYSAPANLYVRELREVRRVPPR [PTPRD], for which the protein stability index reads like this: under setting [1], 4.23 ± 0.23; under setting [2], 3.9 ± 0.12. Take SFSVLNWDQVSRLHEVLTEVVPIH [TENT5C]: the protein stability index was 2.26 ± 0.28 under setting [1] and 2.3 ± 0.27 under setting [2]. For LFHRLDEDWDSALFAELGYFTDTD [ATF6], in that order: 2.91 ± 0.48 and 3.02 ± 0.26.

For the sequence RERAVEWRERAVEKRERALEEVER [ZBED2], the protein stability index by setting is: under setting [1], 4.9 ± 0.71; under setting [2], 5.08 ± 0.29. For VDQTGVSGGVASFICQATGDPRPK [PTPRD], in that order: 4.62 ± 0.17 and 4.81 ± 0.2.

As to LDPMKNVTCENGLPAVVSCVPGQV [LOXL2], the protein stability index under setting [2] was 4.36 ± 0.06. As for EQAKENENGELQKIILPRSRVKG [ZC2HC1C], the protein stability index was found to be 3.42 ± 0.47 (treatment: DMSO, c terminus: native) and 3.42 ± 0.28 (treatment: MLN4924 1 uM, 8 h, c terminus: native). Regarding ATFHVGGGPAQNAPHQQPPAPPSD [TFE3], the protein stability index under setting [1] worked out at 4.86 ± 0.16 and the protein stability index under setting [2] was 4.84 ± 0.26. As for KVDGPRSPSYGRSRSRSRSRSRSR [SRSF1], the protein stability index is, setting by setting: under setting [1], 5.27 ± 0.26; under setting [2], 5.46 ± 0.14. As for LSKQAKFAYKDEYEKFKLYLTIIL [TMEM120A], the protein stability index came out at 2.61 ± 0.36 under setting [1] and 2.48 ± 0.54 under setting [2]. Taken in the same sequence, the figures for MECYDIYSKTWTKQPDLTMVRKIG [GAN] were 2.14 ± 0.34 and 2.66 ± 0.23. For SMFTLPVVYVKHQAQIDQYLGLVR [RTN1], in that order: 2.5 ± 0.49 and 2.23 ± 0.41.

In the case of IHFDSYITCVSGAIVDLISRQYDK [FBXO33], the protein stability index by setting is: under setting [1], 2.7 ± 0.47; under setting [2], 2.81 ± 0.53. Turning to ADLELSLPECLEYEEEFDYETESE [GNAS], the protein stability index stood at 5.41 ± 0.24 under setting [1] and 5.47 ± 0.16 under setting [2].

Turning to DHLENVSKLVESGIQFMDEPEMAV [TRIM55], the protein stability index by setting is: under setting [1], 4.54 ± 0.45; under setting [2], 4.75 ± 0.41. Taken in the same sequence, the figures for VGRTVLDMLIREVVEKRLCMYEHG [RSPH3] were 2.89 ± 0.52 and 3.39 ± 0.14. For AKDPGKGELPNHPKPAGGAIPTKK [FBF1], in that order: 5.47 ± 0.34 and 5.65 ± 0.15.

On to APSKEEMLSWILRINLVAAIFSAP [PSD2], for which the protein stability index runs as follows: under setting [1], 2.71 ± 0.32; under setting [2], 3.03 ± 0.62.

With IFRCFCPVFLHSQMLWELVLLGEP [DENND6A], the protein stability index is, setting by setting: under setting [1], 3.17 ± 0.39; under setting [2], 2.87 ± 0.33. Taken in the same sequence, the figures for GQDTMLKAMFSGRVEVLTDAGGWV [KCTD13] were 2.45 ± 0.26 and 2.36 ± 0.35. As for EDLEWERYRGRGSEEYRAPRPQSE [CHGB], the protein stability index runs as follows: under setting [1], 5.19 ± 0.38; under setting [2], 5.33 ± 0.23. For DEIYRVLRYVNSTRAPQRAHEVLQ [FBXO28], in that order: 2.43 ± 0.28 and 2.44 ± 0.33. Turning to AGWTLATLGEQGLPHQSHRQRSSL [SCNN1D], the protein stability index is 3.62 ± 0.21 under setting [1] and 3.75 ± 0.21 under setting [2].

Consider TWKVLFCSMSATFTLNFFRSGIQF [CLCN6], for which the protein stability index worked out at 3.25 ± 0.11 under setting [1] and 3.2 ± 0.73 under setting [2]. Taken in the same sequence, the figures for KVPNHYIAIPEWFLSENATVAAET [CPXM2] were 3.22 ± 0.43 and 3.32 ± 0.47. For SGGSYRDSYESYGNSRSAPPTRGP [RBMX], in that order: 4.3 ± 0.27 and 3.83 ± 0.38. Regarding EQLEAEAQALRQELERQRRLLGSV [PBXIP1], the protein stability index is, setting by setting: under setting [1], 4.04 ± 0.22; under setting [2], 4.02 ± 0.21.
